Kd data for one substance are collected here from PMC10361598.

In test [1] the target is CXCR4^QTY-Fc (not stated | rabbit). Kind of test: graphene field-effect transistor array.
The target is the same in test [2]. Kind of test: graphene field-effect transistor array. The source holds these as a separate data set.

Where two headings read alike, the source gives them in different places.

Take “recombinant HIV coat glycoprotein gp_(41–120)”: the results for the Kd in test [1] and in test [2] were 5.8 nM and 19.1 nM, respectively.
